From paper PMC9483561

Target: integrin α5β1 headpiece (α5 F1–L609/β1 Q1–E481) (UniProt P05556)
Test: fluorescence polarisation

Row | Kd [nM] | Substance
1 | 30 | fibronectin fragment Fn7–10 (P1142–T1509) (from UniProt P02751-1 1173-1540) (domain or fragment)
2 | 30 | fibronectin fragment Fn9–10 (G1326–T1509) (from UniProt P02751-1 1357-1540) (domain or fragment)
